Results on 83 variants are retold here after the RNAGym collection of RNA variant scans (doi:10.1093/molbev/msab373).

B1: Azoarcus group I ribozyme (parent)
chain: GUGCCUUGCGCCGGGAAACCACGCAAGGGAUGGUGUCAAAUUCGGCGAAACCUAAGCGCCCGCCCGGGCGUAUGGCAACGCCGAGCCAAGCUUCGGCGCCUGCGCCGAUGAAGGUGUAGAGACUAGACGGCACCCACCUAAGGCAAACGCUAUGGUGAAGGCAUAGUCCAGGGAGUGGCGAAAGUCACACAAACCGG

The variants in the series derive from B1. Kind of series: reverse-splicing fitness (ratio to wild type); higher = more active; in vitro selection; Mg2+ level not given. Summed up:
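An in vitro group I ribozyme library with randomized positions was T7-transcribed and gel-purified. In triplicate, 10 pmol RNA in EPPS pH 7.5 was reacted with 50 pmoles of a 30-nt RNA substrate for 1 h at 37 °C across several added MgCl2 levels (1–48 mM), then stopped with EDTA. Products were reverse transcribed from a substrate-complementary primer, PCR-amplified and sequenced (HiSeq 4000). Fitness is a variant's read proportion after selection over that before, normalised to wild type.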
For A111U C150U C169G U176A, the reverse-splicing fitness was found to be 0.0177.

On to A111U C150U C169G U176C, for which the reverse-splicing fitness was 0.0215.

For A111U C150U C169G U176G, the reverse-splicing fitness stood at 0.00719. The same measure for A120C A145C C150G C169G U176C: 0.00582.

For the variant A120C A145C C150G C169G U176A, the reverse-splicing fitness amounted to 0.00848.

Consider A120C A145C C150G C169G U176G, for which the reverse-splicing fitness came to 0.00352. As to A111U A145G C150A C169A U176G, the reverse-splicing fitness was determined as 0.0068. As for A111U A145G C150A C169A U176A, the figure is 0.0172. As for A111U A145G C150A C169A U176C, the figure is 0.0233; as for A111U C150G C169A U176G, 0.00689; as for A111U C150G C169A U176A, 0.0102.

For A111U C150G C169A U176C, the reverse-splicing fitness came out at 0.0111. Consider A111U C150U U176A, for which the reverse-splicing fitness worked out at 0.6.

On to A111U C150U U176C, for which the reverse-splicing fitness worked out at 0.638. As for A111U C150U U176G, the figure is 0.251. As for A111U A145U C150U U176G, the figure is 0.266; as for A111U A145U C150U U176A, 0.632; as for A111U A145U C150U U176C, 0.641. As for A120C A145C C150A C169A U176G, the figure is 0.00372; as for A120C A145C C150A C169A U176A, 0.00897; as for A120C A145C C150A C169A U176C, 0.00472. Consider A111U C150A C169G, for which the reverse-splicing fitness was 0.0124. The same measure for A111U C150A C169A: 0.0111; for A111U C150A C169U: 0.0167. As for A120C A145C C150A C169U, the figure is 0.0518; as for A120C A145C C150A C169G, 0.00626; as for A120C A145C C150A C169A, 0.00701. The same measure for A111U A145U C150U C169G U176G: 0.00643; for A111U A145U C150U C169G U176C: 0.0192; for A111U A145U C150U C169G U176A: 0.016. Regarding A111U C150G C169G U176G, the reverse-splicing fitness is 0.00515.

On to A111U C150G C169G U176A, for which the reverse-splicing fitness worked out at 0.00681.

Consider A111U C150G C169G U176C, for which the reverse-splicing fitness worked out at 0.00465. As for A111U A145U C150G C169A U176C, the figure is 0.0101; as for A111U A145U C150G C169A U176A, 0.0103; as for A111U A145U C150G C169A U176G, 0.00591. For A111U A145G C150U C169G U176A, the reverse-splicing fitness was found to be 0.0164. A111U A145G C150U C169G U176G: the reverse-splicing fitness was 0.00671.

In the case of A111U A145G C150U C169G U176C, the reverse-splicing fitness came to 0.0269. As for A111U A145G C150G C169U U176A, the figure is 0.0111; as for A111U A145G C150G C169U U176G, 0.0076. As for A111U A145G C150G C169U U176C, the figure is 0.0136; as for A111U A145G C150U C169U, 0.0923; as for A111U A145G C150U C169G, 0.0498.

On to A111U A145G C150U C169A, for which the reverse-splicing fitness stood at 0.025. The same measure for A111U A145U C150U C169A U176C: 0.0104.

As for A111U A145U C150U C169A U176G, the reverse-splicing fitness was determined as 0.00694. As for A111U A145U C150U C169A U176A, the figure is 0.0144; as for A111U A145C C169A, 0.027. As for A111U A145C C169G, the figure is 0.0589. The same measure for A111U A145C C169U: 0.108; for A111U A145U C150G C169G: 0.011; for A111U A145U C150G C169U: 0.0168. Take A111U A145U C150G C169A: the reverse-splicing fitness was 0.0102. Take A111U A145U C150A C169G U176A: the reverse-splicing fitness was found to be 0.0129.

As to A111U A145U C150A C169G U176C, the reverse-splicing fitness was 0.0169. The same measure for A111U A145U C150A C169G U176G: 0.0065. The same measure for A111U A145G C150A C169G U176A: 0.0163; for A111U A145G C150A C169G U176C: 0.0292; for A111U A145G C150A C169G U176G: 0.00603. As for A111U A145G C169U U176A, the figure is 0.0265. Consider A111U A145G C169U U176C, for which the reverse-splicing fitness was 0.0327. Regarding A111U A145G C169U U176G, the reverse-splicing fitness is 0.00581. For the variant A120C A145C C150A C169G U176A, the reverse-splicing fitness was determined as 0.0166. The same measure for A120C A145C C150A C169G U176C: 0.00769.

On to A120C A145C C150A C169G U176G, for which the reverse-splicing fitness was 0.00492. Take A111U A145G: the reverse-splicing fitness was 0.921. As for A111U A145U, the figure is 0.924; as for A120C A145G, 0.772; as for A120C A145C, 0.783.

Regarding A120C A145G C150U C169A U176A, the reverse-splicing fitness was found to be 0.0167. The same measure for A120C A145G C150U C169A U176G: 0.00444.

For the variant A120C A145G C150U C169A U176C, the reverse-splicing fitness is 0.0196. With A111U A145G C150A C169U, the reverse-splicing fitness came out at 0.0213. Turning to A111U A145G C150A C169G, the reverse-splicing fitness came to 0.0147. The same measure for A111U A145G C150A C169A: 0.0132; for A120C A145C C150U C169U U176C: 0.0863; for A120C A145C C150U C169U U176A: 0.0792. The same measure for A120C A145C C150U C169U U176G: 0.00874; for A111U C169A U176A: 0.0172.

For A111U C169A U176C, the reverse-splicing fitness amounted to 0.0214. As for A111U C169A U176G, the figure is 0.00592; as for A111U A145U C150A U176C, 0.228.
